The text below walks through data of patent US20190112392A1 (Ablynx, published 2019).

Broadly, the Kd is the concentration at which binding is half-saturated. In general, koff refers to the first-order rate constant of dissociation. Usually kon stands for a measure of how fast the partners come together. By EC50 is commonly meant the concentration needed to bring the measured effect to its halfway point.

Test [1] concerns the target T1, hCEACAM-5 (R&D Systems, #4128-CM) (human, UniProt P06731 35-685).
T1 construct: Bought protein; also called human CEACAM5 protein
T1 sequence (looked up): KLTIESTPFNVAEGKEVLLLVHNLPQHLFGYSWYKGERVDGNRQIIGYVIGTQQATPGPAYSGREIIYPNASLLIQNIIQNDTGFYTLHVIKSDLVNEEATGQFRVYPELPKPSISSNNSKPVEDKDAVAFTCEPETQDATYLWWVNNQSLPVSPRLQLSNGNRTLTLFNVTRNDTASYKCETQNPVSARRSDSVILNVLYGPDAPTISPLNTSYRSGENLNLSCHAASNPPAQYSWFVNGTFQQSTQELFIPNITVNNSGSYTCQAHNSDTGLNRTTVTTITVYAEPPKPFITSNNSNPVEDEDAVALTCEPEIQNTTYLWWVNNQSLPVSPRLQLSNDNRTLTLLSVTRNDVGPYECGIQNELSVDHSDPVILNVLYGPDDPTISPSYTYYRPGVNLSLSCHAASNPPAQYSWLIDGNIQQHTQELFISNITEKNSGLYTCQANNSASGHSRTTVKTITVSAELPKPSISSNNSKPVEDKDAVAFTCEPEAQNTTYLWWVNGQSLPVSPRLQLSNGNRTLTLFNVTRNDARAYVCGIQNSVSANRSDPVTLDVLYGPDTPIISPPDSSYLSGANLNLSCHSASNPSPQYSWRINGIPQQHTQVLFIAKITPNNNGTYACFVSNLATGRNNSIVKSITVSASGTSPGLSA
As to the kind of experiment: SPR (Biacore T100), immobilized hCEACAM-5, 1:1 model. Here is the method: Thereto, hCEACAM-5 (R&D Systems, #4128-CM) was immobilized onto a CM5 chip via amine coupling, using EDC and NHS chemistry. Purified Nanobodies were injected for 2 minutes at different concentrations (between 0.31 and 2000 nM) and allowed to dissociate for 15 min at a flow rate of 45 μl/min. In between sample injections, the surfaces were regenerated with 10 mM Glycine pH 1.5. HBS-EP+(Hepes buffer pH7.4) was used as running buffer.
(§1) The kinetic constants were calculated from the sensorgrams using the BIAEvaluation software (1:1 interaction). The affinity constants (KD) were calculated from resulting association and dissociation rate constants kon and koff, and are shown in Table C-29.
Background: SPR reads the build-up and loss of mass on a sensor chip optically.

Test [2] deals with T2, T cell receptor alpha/beta on purified primary human T cells (human, UniProt P01848 1-140; P01850 1-176).
T2 construct: whole, on cells; also called human primary T cells
T2 TCR alpha (looked up): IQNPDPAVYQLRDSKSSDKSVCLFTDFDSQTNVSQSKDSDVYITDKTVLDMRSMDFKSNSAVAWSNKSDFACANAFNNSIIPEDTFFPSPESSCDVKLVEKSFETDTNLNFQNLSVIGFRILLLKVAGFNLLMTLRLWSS
T2 TCR beta (looked up): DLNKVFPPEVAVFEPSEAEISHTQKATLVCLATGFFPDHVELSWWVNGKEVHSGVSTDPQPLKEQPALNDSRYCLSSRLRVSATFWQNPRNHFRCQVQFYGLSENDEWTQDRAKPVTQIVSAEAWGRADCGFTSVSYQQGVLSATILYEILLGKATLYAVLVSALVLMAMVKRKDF
Briefly: flow cytometry on primary human T cells, MeanFI (PE).

Test [3] addresses T3, EGFR on cells (UniProt P00533 25-1210, limits assumed).
T3 construct: whole, on cells; also called HER14 cells (NIH3T3 transfected with EGFR); EGFR on LS174T and LoVo cells
As to the kind of experiment: flow cytometry on HER14 cells, MeanFI (PE). A general note: In flow cytometry, cells or beads pass a laser one at a time.

The target of test [4] is T4, CEACAM5 on cells (UniProt P06731 35-685).
T4 construct: whole, on cells; also called CEACAM5 on LS174T and LoVo cells
T4 sequence (looked up): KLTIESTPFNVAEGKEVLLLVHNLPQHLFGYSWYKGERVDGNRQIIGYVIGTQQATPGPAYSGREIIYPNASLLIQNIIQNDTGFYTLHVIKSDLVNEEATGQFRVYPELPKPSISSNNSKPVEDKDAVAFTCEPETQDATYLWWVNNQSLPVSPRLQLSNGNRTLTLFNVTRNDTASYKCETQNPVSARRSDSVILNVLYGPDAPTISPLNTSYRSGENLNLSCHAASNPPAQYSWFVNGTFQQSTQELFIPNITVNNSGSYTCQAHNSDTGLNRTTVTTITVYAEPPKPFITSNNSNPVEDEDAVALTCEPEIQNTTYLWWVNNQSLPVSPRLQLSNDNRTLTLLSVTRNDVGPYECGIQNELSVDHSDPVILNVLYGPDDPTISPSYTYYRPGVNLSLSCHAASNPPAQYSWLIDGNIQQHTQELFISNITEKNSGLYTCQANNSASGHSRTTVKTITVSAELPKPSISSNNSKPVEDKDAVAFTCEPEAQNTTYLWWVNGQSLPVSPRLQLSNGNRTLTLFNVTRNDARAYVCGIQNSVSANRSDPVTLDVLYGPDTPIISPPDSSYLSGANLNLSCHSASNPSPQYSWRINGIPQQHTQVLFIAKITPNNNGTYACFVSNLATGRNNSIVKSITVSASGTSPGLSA
As to the kind of experiment: flow cytometry, LoVo cells. More on the design: Top: unit not given here.

Test [5] deals with T4, CEACAM5 on cells. Briefly: flow cytometry, LS174T cells. More on the design: Top: unit not given here.
For test [6], the target named is T5, hEGFR (Sino Biological, #10001-H08H) (human, UniProt P00533 25-645).
T5 construct: extracellular domain; Bought protein; also called hEGFR ECD; human EGFR protein
As to the kind of experiment: SPR (Biacore T100), immobilized hEGFR, 1:1 model. Here is the method: Thereto, hEGFR (Sino Biological, #10001-H08H) was immobilized onto a CM5 chip via amine coupling, using EDC and NHS chemistry. Purified Nanobodies were injected for 2 minutes at different concentrations (between 1.37 and 3000 nM) and allowed to dissociate for 15 min at a flow rate of 45 μl/min. In between sample injections, the surfaces were regenerated with 50 mM NaOH. HBS-EP+(Hepes buffer pH7.4) was used as running buffer.
as §1

Test [7] deals with T3, EGFR on cells. Briefly: flow cytometry, LoVo cells. On the set-up: Top: unit not given here.
Test [8] addresses T3, EGFR on cells. As to the kind of experiment: flow cytometry, HER14 cells.
Test [9] addresses T3, EGFR on cells. Briefly: flow cytometry, LS174T cells. On the set-up: Top: unit not given here.
Test [10] concerns the target T4, CEACAM5 on cells. Briefly: cell-based or functional assay.
Test [11] has as its target T4, CEACAM5 on cells. Briefly: cell-based or functional assay. This is another data set of the same source.

B1: NbCEA5 (VHH)
VHH: EVQLVESGGGSVQAGGSLRLSCAASGDTYGSYWMGWFRQAPGKEREGVAAINRGGGYTVYADSVKGRFTISRDTAKNTVYLQMNSLRPDDTADYYCAASGVLGGLHEDWFNYWGQGTLVTVSS
notes: Monovalent Nanobody; also called CEA#1; monovalent anti-CEA Nanobody
Take B1: in test [1], binding was characterised by a dissociation constant (Kd) of 0.51 nM, the koff came to 0.00051 s⁻¹ and the kon was determined as 990000 M⁻¹ s⁻¹. In addition, the binding result in [2] was “no binding (tested: 5e-7 M)”. Further, in test [3], the binding result is given as “no binding (tested: 5e-7 M)”. Also, in test [4], the EC50 stood at 1.2 nM and the Top amounted to 11200. In test [5], this molecule registered an EC50 of 0.59 nM and a Top of 43000.

B2: EGFR038G07 (VHH)
VHH: EVQLVESGGGLVQAGGSLRLSCAASGRTFSSYVMGWFRQATGKEREFVATIAWDSGSTYYADSVKGRFTISRDNAKNTVHLQMNSLKPEDTAVYYCAASYNVYYNNYYYPISRDEYDYWGQGTLVTVSS
notes: Monovalent Nanobody; also called monovalent anti-EGFR Nanobody; EGFR monovalent Nanobody
Regarding B2, the binding result in [2] is reported as “no binding (tested: 5e-7 M)”. In test [6], this molecule registered a Kd of 0.763 nM, a koff of 0.000426 s⁻¹ and a kon of 558000 M⁻¹ s⁻¹. For the same molecule, in test [7], the response was half-maximal at 0.54 nM (EC50) and the Top was determined as 52300. In [8], this molecule displayed a concentration giving a half-maximal response (EC50) of 1.8 nM and a Top of 166000. Besides, in [9], a half-maximal effect (EC50) was put at 0.93 nM and the Top is 32200.

B3: T017000109 (other)
chain: EVQLVESGGGSVQAGGSLRLSCAASGYTIGPYCMGWFRQAPGKEREGVAAINMGGGITYYADSVKGRFTISQDNAKNTVYLLMNSLEPEDTAIYYCAADSTIYASYYECGHGLSTGGYGYDSWGQGTLVTVSSGGGGSGGGGSGGGGSGGGGSGGGGSGGGGSGGGGSEVQLVESGGGSVQAGGSLRLSCAASGDTYGSYWMGWFRQAPGKEREGVAAINRGGGYTVYADSVKGRFTISRDTAKNTVYLQMNSLRPDDTADYYCAASGVLGGLHEDWFNYWGQGTLVTVSSGGGGSGGGGSGGGGSGGGGSGGGGSGGGGSGGGGSEVQLVESGGGLVQPGGSLRLSCVASGDVHKINFLGWYRQAPGKEREKVAHISIGDQTDYADSAKGRFTISRDESKNMVYLQMNSLKPEDTAVYFCRAFSRIYPYDYWGQGTLVTVSSGAADYKDHDGDYKDHDIDYKDDDDKGAAHHHHHH
notes: Irrelevant (anti-egg lysozyme) x CEACAM5 x TCR Nanobody construct; entry includes the FLAG3-HIS6 tag; also called cAbLys3(D1E,Q5V,A6E,Q108L)-35GS-NbCEA5-35GS-T0170056G05-FLAG3-HIS6
For the molecule B3, in test [10], the “IC50, xCELLigence human T cell mediated killing of LS174T cells, E:T 15, 30-40 h” value worked out at 100 nM and the “IC50, xCELLigence human T cell mediated killing of LoVo cells, E:T 15, 30-40 h” value is 9.3 nM. In [11], the “IC50, xCELLigence human T cell mediated killing of LS174T cells, E:T 15, 50-60 h” value stood at 36 nM and the “IC50, xCELLigence human T cell mediated killing of LoVo cells, E:T 15, 50-60 h” value was determined as 2 nM. Also, the binding result in [3] is given as “no binding (tested: 5e-7 M)”. Moreover, in test [4], the EC50 came to 36 nM and the Top was determined as 18500. In addition, in test [5], the EC50 was 25 nM and the Top amounted to 51000.
